In one test the target is streptavidin (UniProt P22629 37-163). Description: ELISA, FIG. 1b. For orientation: ELISA stands for enzyme-linked immunosorbent assay.
The target in test [1] is T1, human P-glycoprotein (Pgp), 170 kDa, encoded by the mdr1 gene, on the surface of MDR human carcinoma cells … (human, UniProt P08183 1-1280). Description: cell-based or functional assay.
Test [2] deals with T1, human P-glycoprotein (Pgp), 170 kDa, …. The experiment in a line: flow cytometry on MDR, Pgp-overexpressing 2780^ADR cells, A2 scFv 50 µg/ml.
The target in test [3] is T2, biotinylated target Pgp-derived peptide having the amino acid sequence of SEQ ID NO:1 (GEMTDIFANAGNL) (human, also: biotinylated, position not given here).
T2 construct: also called target peptide
T2 peptide: GEMTDIFANAGNL
Description: saturation ELISA on plate-bound biotinylated peptide; the filing calls the value the affinity constant.

The target in test [4] is T2, biotinylated target Pgp-derived peptide …. The experiment in a line: competition radioimmunoassay, cold A2 scFv against [125I]-labeled A2 scFv on plate-bound peptide; the filing calls the value the affinity constant.

“And” between values parts separate entries of the source, which are not always exact repeats. Identical values can stand only once. No end group written: not given here.

We go through 1 molecule from US20040197334A1 (TECHNION RESEARCH AND DEVELOPMENT FOUNDATION, published 2004).

T1 sequence (P08183 whole entry): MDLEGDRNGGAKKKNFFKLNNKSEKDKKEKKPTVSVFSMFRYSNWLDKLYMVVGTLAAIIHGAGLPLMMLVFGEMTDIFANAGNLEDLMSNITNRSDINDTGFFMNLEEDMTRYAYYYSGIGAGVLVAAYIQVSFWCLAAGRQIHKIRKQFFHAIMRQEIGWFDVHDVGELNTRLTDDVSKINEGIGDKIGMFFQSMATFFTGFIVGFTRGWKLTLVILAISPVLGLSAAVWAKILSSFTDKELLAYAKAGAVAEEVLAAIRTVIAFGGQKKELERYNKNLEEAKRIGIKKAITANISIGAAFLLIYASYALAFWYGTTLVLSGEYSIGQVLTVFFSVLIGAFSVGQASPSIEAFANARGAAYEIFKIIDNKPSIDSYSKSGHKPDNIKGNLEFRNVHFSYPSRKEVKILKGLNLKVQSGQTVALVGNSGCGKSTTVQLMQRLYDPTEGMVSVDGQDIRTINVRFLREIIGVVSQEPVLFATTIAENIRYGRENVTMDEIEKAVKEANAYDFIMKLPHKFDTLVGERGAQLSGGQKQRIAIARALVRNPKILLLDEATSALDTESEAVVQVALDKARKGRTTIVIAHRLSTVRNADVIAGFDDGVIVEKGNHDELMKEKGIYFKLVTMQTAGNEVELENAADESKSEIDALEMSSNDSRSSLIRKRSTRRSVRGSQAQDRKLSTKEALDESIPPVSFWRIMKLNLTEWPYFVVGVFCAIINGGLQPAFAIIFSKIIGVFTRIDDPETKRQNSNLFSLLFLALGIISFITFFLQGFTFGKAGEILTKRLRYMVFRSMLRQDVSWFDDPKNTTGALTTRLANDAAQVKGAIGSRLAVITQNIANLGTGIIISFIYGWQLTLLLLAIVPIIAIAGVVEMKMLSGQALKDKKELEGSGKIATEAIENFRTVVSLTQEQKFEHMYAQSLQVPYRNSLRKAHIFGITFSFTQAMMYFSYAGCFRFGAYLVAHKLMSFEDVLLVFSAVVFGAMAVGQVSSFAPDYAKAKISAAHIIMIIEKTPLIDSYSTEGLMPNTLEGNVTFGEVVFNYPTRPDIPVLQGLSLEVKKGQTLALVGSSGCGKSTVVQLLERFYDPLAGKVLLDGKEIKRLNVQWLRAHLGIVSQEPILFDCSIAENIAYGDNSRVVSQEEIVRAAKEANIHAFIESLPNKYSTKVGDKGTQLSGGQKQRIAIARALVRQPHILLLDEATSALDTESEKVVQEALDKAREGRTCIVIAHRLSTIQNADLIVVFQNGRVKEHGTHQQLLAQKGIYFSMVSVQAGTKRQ
streptavidin, sequence (P22629 37-163 limits assumed): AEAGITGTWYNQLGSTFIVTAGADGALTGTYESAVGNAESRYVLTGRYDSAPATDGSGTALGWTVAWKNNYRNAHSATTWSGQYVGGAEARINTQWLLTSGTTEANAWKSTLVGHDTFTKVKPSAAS

B1: A2 single-chain Fv (scFv) (scFv)
scFv: QVQLQQSGPDLVKPGASVKISCKASGYSFTGYYMHWVKQSHGKSLEWIGRANPNNGGTSYNQKFKGKAILTVDKSSSTAYMELRSLTSEDSAVYYCARWDGAYWGQGTLVTVSSGGGGSGGGGSGGGGSDVVMTQTPLSLPVSLGDQASISCRSSQSIVHSNGNTYLEWYLQKPGQSPKLLIYKVSNRFSGVPDRFSGSGSGTDFTLKISRVEAEDLGVYYCFQGSHVPFTFGSGTKLELKEQKLISEEDLNHHHHHH
notes: Soluble monomeric scFv of about 30 kDa, expressed in E. coli BL21 and purified from the periplasm; In the radioimmunoassay the tracer was labeled with 125I by the Bolton-Hunter reagent; also called A2 scFv; A2 scFv antibody
By EC50 is commonly meant the concentration giving half of the maximal effect. Broadly, the IC50 is the point on the concentration scale where inhibition reaches its midpoint. A high value points to weaker potency. Turning to B1, the binding result with streptavidin is “no binding”. Further, the “concentration of A2 scFv that inhibits 50% drug-efflux activity (IC50), calcein accumulation in 2780^ADR cells” value in test [1] was ~65 µg/ml and ~2.6 µM. Besides, the “fold increase in fluorescent intensity” value in test [2] was found to be 10 fold. This molecule gave an EC50 in test [3] of approximately 150 nM. The IC50 in test [4] was approximately 130 nM.
